Assay [1] deals with T1, human IL-8 (human, UniProt P10145 23-99, limits assumed).
T1 construct: also called hIL-8; hIL8
The experiment in a line: SPR Biacore T200, Protein A/G capture, pH 7.4, 40C.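 Also: antibodies captured via Protein A/G, which was amine-coupled to a CM4 sensor chip.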 Background: In SPR one partner is held on a chip, and binding of the other changes the refractive index at the surface.
Protocol: (§1) An appropriate amount of Protein A/G (PIERCE) was immobilized onto the Sensor chip CM4 (GE Healthcare) by the amine coupling method and the antibodies of interest were captured. […] To regenerate the sensor chip, 25 mM NaOH and 10 mM glycine-HCl (pH 1.5) were used. […] The BIACORE T200 Evaluation Software (GE Healthcare) was used to calculate each parameter.

Assay [2] addresses T1, human IL-8. Briefly: SPR Biacore T200, Protein A/G capture, pH 5.8, 37C.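 Also: antibodies captured by Protein A/G amine-coupled onto a CM4 sensor chip, with kinetic parameters derived using Biacore T200 Evaluation Software.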
Protocol: as §1

By Kd is commonly meant the equilibrium constant for the complex coming apart. Lower therefore signals tighter binding. The koff is a measure of how fast the partners let go of each other.

T1 sequence (P10145 23-99 limits assumed): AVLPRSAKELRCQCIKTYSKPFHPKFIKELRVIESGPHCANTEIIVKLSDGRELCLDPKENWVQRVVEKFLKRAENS

B1: H0932/L0395 (antibody, name in Kabat numbering, V domains shown)
VH: QVQLVESGGGLVQPGGSLRLSCAASGFTFSDYYLSWVRQAPGKGLEWVGLIRNKDNHHTPEYSASVKGRFTISRDDSKNSLYLTMSDLKTEDTAVYYCARENHRYDVELAYWGQGTLVTVSS
VL: DIQMTQSPSSLSASVGDRVTITCRASEIIYSYLAWYQQKPGKAPKLLIYKAKTHADGVPSRFSGSGSGTDFTFTISSLQPEDIATYYCKHHFGFPRTFGQGTKVEIKR
Turning to B1, the Kd in assay [1] came out at 0.16 nM.

B2: H0932/L0442 (antibody, human IgG1, kappa, name in Kabat numbering, V domains shown)
VH: QVQLVESGGGLVQPGGSLRLSCAASGFTFSDYYLSWVRQAPGKGLEWVGLIRNKDNHHTPEYSASVKGRFTISRDDSKNSLYLTMSDLKTEDTAVYYCARENHRYDVELAYWGQGTLVTVSS
VL: DIQMTQSPSSLSASVGDRVTITCRASEIIYEYLAWYQQKPGKAPKLLIYKAKTHADGVPSRFSGSGSGTDFTFTISSLQPEDIATYYCKHHFGFPRTFGQGTKVEIKR
On to B2, for which the Kd in assay [2] was 79 nM.

B3: H1004/L0442 (antibody, human IgG1, kappa, name in Kabat numbering, V domains shown)
VH: QVQLVESGGGLVQPGGSLRLSCAASGFTFSDYYLSWVRQAPGKGLEWVGLIRNKDNGYTPEYSASVKGRFTISRDDSKNSLYLTMSDLKTEDTAVYYCARENHRYDVELAYWGQGTLVTVSS
VL: DIQMTQSPSSLSASVGDRVTITCRASEIIYEYLAWYQQKPGKAPKLLIYKAKTHADGVPSRFSGSGSGTDFTFTISSLQPEDIATYYCKHHFGFPRTFGQGTKVEIKR
notes: L442 = L395 + S31E
As to B3, the Kd is 77 nM in assay [2] and 0.22 nM in assay [1]. Moreover, the koff in assay [2] was 0.02 s⁻¹.

B4: H1046/L0442 (antibody, human IgG1, kappa, name in Kabat numbering, V domains shown)
VH: QVQLVESGGGLVQPGGSLRLSCAASGFTFSEYYLSWVRQAPGKGLEWVGLIRNKDNYHHPEYSASVKGRFTISRDDSKNSLYLTMSDLKTEDTAVYYCARENHRYDVELAYWGQGTLVTVSS
VL: DIQMTQSPSSLSASVGDRVTITCRASEIIYEYLAWYQQKPGKAPKLLIYKAKTHADGVPSRFSGSGSGTDFTFTISSLQPEDIATYYCKHHFGFPRTFGQGTKVEIKR
notes: L442 = L395 + S31E
B4 returned a Kd in assay [1] of 0.23 nM.

B5: H1028/L0395 (antibody, human IgG1, kappa, name in Kabat numbering, V domains shown)
VH: QVQLVESGGGLVQPGGSLRLSCAASGFTFSDYYLSWVRQAPGKGLEWVGLIRNKDNYHHPEYSASVKGRFTISRDDSKNSLYLTMSDLKTEDTAVYYCARENHRYDVELAYWGQGTLVTVSS
VL: DIQMTQSPSSLSASVGDRVTITCRASEIIYSYLAWYQQKPGKAPKLLIYKAKTHADGVPSRFSGSGSGTDFTFTISSLQPEDIATYYCKHHFGFPRTFGQGTKVEIKR
Take B5: the Kd in assay [2] was 210 nM; in assay [1], 0.18 nM.

B6: H1032/L0395 (antibody, human IgG1, kappa, name in Kabat numbering, V domains shown)
VH: QVQLVESGGGLVQPGGSLRLSCAASGFTFDKYYLSWVRQAPGKGLEWVGLIRNKDNGYHPEYSASVKGRFTISRDDSKNSLYLTMSDLKTEDTAVYYCARENHRYDVELAYWGQGTLVTVSS
VL: DIQMTQSPSSLSASVGDRVTITCRASEIIYSYLAWYQQKPGKAPKLLIYKAKTHADGVPSRFSGSGSGTDFTFTISSLQPEDIATYYCKHHFGFPRTFGQGTKVEIKR
In assay [2], B6 showed a Kd of 50 nM and a dissociation rate constant (koff) of 0.0041 s⁻¹. For the same molecule, the Kd in assay [1] was 0.042 nM.

B7: H1000/L0395 (antibody, human IgG1, kappa, name in Kabat numbering, V domains shown)
VH: QVQLVESGGGLVQPGGSLRLSCAASGFTFSEYYLSWVRQAPGKGLEWVGLIRNKDNHHTPEYSASVKGRFTISRDDSKNSLYLTMSDLKTEDTAVYYCARENHRYDVELAYWGQGTLVTVSS
VL: DIQMTQSPSSLSASVGDRVTITCRASEIIYSYLAWYQQKPGKAPKLLIYKAKTHADGVPSRFSGSGSGTDFTFTISSLQPEDIATYYCKHHFGFPRTFGQGTKVEIKR
In the case of B7, in assay [2], binding was put at a Kd of 89 nM and the koff was 0.02 s⁻¹. In assay [1], this molecule returned a dissociation constant Kd of 0.14 nM.

B8: H1022/L0395 (antibody, human IgG1, kappa, name in Kabat numbering, V domains shown)
VH: QVQLVESGGGLVQPGGSLRLSCAASGFTFSDYYLSWVRQAPGKGLEWVGLIRNKDNHHHPEYSASVKGRFTISRDDSKNSLYLTMSDLKTEDTAVYYCARENHRYDVELAYWGQGTLVTVSS
VL: DIQMTQSPSSLSASVGDRVTITCRASEIIYSYLAWYQQKPGKAPKLLIYKAKTHADGVPSRFSGSGSGTDFTFTISSLQPEDIATYYCKHHFGFPRTFGQGTKVEIKR
As to B8, the Kd in assay [2] came to 290 nM; in assay [1], 0.27 nM. Further, the koff in assay [2] was found to be 12 s⁻¹.

B9: H1031/L0395 (antibody, human IgG1, kappa, name in Kabat numbering, V domains shown)
VH: QVQLVESGGGLVQPGGSLRLSCAASGFTFDKYYLSWVRQAPGKGLEWVGLIRNKDNHHHPEYSASVKGRFTISRDDSKNSLYLTMSDLKTEDTAVYYCARENHRYDVELAYWGQGTLVTVSS
VL: DIQMTQSPSSLSASVGDRVTITCRASEIIYSYLAWYQQKPGKAPKLLIYKAKTHADGVPSRFSGSGSGTDFTFTISSLQPEDIATYYCKHHFGFPRTFGQGTKVEIKR
Take B9: binding in assay [2] was characterised by a dissociation constant (Kd) of 99 nM.

B10: H1029/L0442 (antibody, human IgG1, kappa, name in Kabat numbering, V domains shown)
VH: QVQLVESGGGLVQPGGSLRLSCAASGFTFDKYYLSWVRQAPGKGLEWVGLIRNKDNHHTPEYSASVKGRFTISRDDSKNSLYLTMSDLKTEDTAVYYCARENHRYDVELAYWGQGTLVTVSS
VL: DIQMTQSPSSLSASVGDRVTITCRASEIIYEYLAWYQQKPGKAPKLLIYKAKTHADGVPSRFSGSGSGTDFTFTISSLQPEDIATYYCKHHFGFPRTFGQGTKVEIKR
notes: L442 = L395 + S31E
In assay [2], B10 had an equilibrium dissociation constant (Kd) of 48 nM and an off-rate (koff) of 0.0085 s⁻¹. Binding in assay [1] was characterised by a dissociation constant (Kd) of 0.14 nM.

B11: H1000/L0442 (antibody, human IgG1, kappa, name in Kabat numbering, V domains shown)
VH: QVQLVESGGGLVQPGGSLRLSCAASGFTFSEYYLSWVRQAPGKGLEWVGLIRNKDNHHTPEYSASVKGRFTISRDDSKNSLYLTMSDLKTEDTAVYYCARENHRYDVELAYWGQGTLVTVSS
VL: DIQMTQSPSSLSASVGDRVTITCRASEIIYEYLAWYQQKPGKAPKLLIYKAKTHADGVPSRFSGSGSGTDFTFTISSLQPEDIATYYCKHHFGFPRTFGQGTKVEIKR
notes: L442 = L395 + S31E
As for B11, the values for the dissociation constant (Kd) in assay [2] and in assay [1] were 71 nM and 0.2 nM, respectively. Also, the koff in assay [2] turned out to be 0.017 s⁻¹.

B12: H1009/L0442 (antibody, human IgG1, kappa, name in Kabat numbering, V domains shown)
VH: QVQLVESGGGLVQPGGSLRLSCAASGFTFSDYYLSWVRQAPGKGLEWVGLIRNKDNYHTPEYSASVKGRFTISRDDSKNSLYLTMSDLKTEDTAVYYCARENHRYDVELAYWGQGTLVTVSS
VL: DIQMTQSPSSLSASVGDRVTITCRASEIIYEYLAWYQQKPGKAPKLLIYKAKTHADGVPSRFSGSGSGTDFTFTISSLQPEDIATYYCKHHFGFPRTFGQGTKVEIKR
notes: L442 = L395 + S31E
As for B12, in assay [2], the Kd came out at 63 nM and the off-rate (koff) is 0.006 s⁻¹. In assay [1], this molecule displayed a Kd of 0.11 nM.

B13: H1031/L0442 (antibody, human IgG1, kappa, name in Kabat numbering, V domains shown)
VH: QVQLVESGGGLVQPGGSLRLSCAASGFTFDKYYLSWVRQAPGKGLEWVGLIRNKDNHHHPEYSASVKGRFTISRDDSKNSLYLTMSDLKTEDTAVYYCARENHRYDVELAYWGQGTLVTVSS
VL: DIQMTQSPSSLSASVGDRVTITCRASEIIYEYLAWYQQKPGKAPKLLIYKAKTHADGVPSRFSGSGSGTDFTFTISSLQPEDIATYYCKHHFGFPRTFGQGTKVEIKR
notes: L442 = L395 + S31E
As to B13, in assay [2], the affinity, expressed as Kd, was 89 nM. That is a double-digit nanomolar value.

B14: H1048/L0395 (antibody, human IgG1, kappa, name in Kabat numbering, V domains shown)
VH: QVQLVESGGGLVQPGGSLRLSCAASGFTFSEYYLSWVRQAPGKGLEWVGLIRNKDNGYTPEYSASVKGRFTISRDDSKNSLYLTMSDLKTEDTAVYYCARENHRYDVELAYWGQGTLVTVSS
VL: DIQMTQSPSSLSASVGDRVTITCRASEIIYSYLAWYQQKPGKAPKLLIYKAKTHADGVPSRFSGSGSGTDFTFTISSLQPEDIATYYCKHHFGFPRTFGQGTKVEIKR
In the case of B14, in assay [2], the Kd came to 90 nM.

B15: H1022/L0442 (antibody, human IgG1, kappa, name in Kabat numbering, V domains shown)
VH: QVQLVESGGGLVQPGGSLRLSCAASGFTFSDYYLSWVRQAPGKGLEWVGLIRNKDNHHHPEYSASVKGRFTISRDDSKNSLYLTMSDLKTEDTAVYYCARENHRYDVELAYWGQGTLVTVSS
VL: DIQMTQSPSSLSASVGDRVTITCRASEIIYEYLAWYQQKPGKAPKLLIYKAKTHADGVPSRFSGSGSGTDFTFTISSLQPEDIATYYCKHHFGFPRTFGQGTKVEIKR
notes: L442 = L395 + S31E
In assay [2], B15 registered a Kd of 180 nM and a koff of 0.02 s⁻¹. This molecule registered a Kd in assay [1] of 0.36 nM.

B16: H1029/L0395 (antibody, human IgG1, kappa, name in Kabat numbering, V domains shown)
VH: QVQLVESGGGLVQPGGSLRLSCAASGFTFDKYYLSWVRQAPGKGLEWVGLIRNKDNHHTPEYSASVKGRFTISRDDSKNSLYLTMSDLKTEDTAVYYCARENHRYDVELAYWGQGTLVTVSS
VL: DIQMTQSPSSLSASVGDRVTITCRASEIIYSYLAWYQQKPGKAPKLLIYKAKTHADGVPSRFSGSGSGTDFTFTISSLQPEDIATYYCKHHFGFPRTFGQGTKVEIKR
In assay [2], B16 displayed a Kd of 55 nM and a koff of 0.008 s⁻¹. Further, the Kd in assay [1] turned out to be 0.086 nM.

B17: H1047/L0442 (antibody, human IgG1, kappa, name in Kabat numbering, V domains shown)
VH: QVQLVESGGGLVQPGGSLRLSCAASGFTFDKYYLSWVRQAPGKGLEWVGLIRNKDNGYTPEYSASVKGRFTISRDDSKNSLYLTMSDLKTEDTAVYYCARENHRYDVELAYWGQGTLVTVSS
VL: DIQMTQSPSSLSASVGDRVTITCRASEIIYEYLAWYQQKPGKAPKLLIYKAKTHADGVPSRFSGSGSGTDFTFTISSLQPEDIATYYCKHHFGFPRTFGQGTKVEIKR
notes: L442 = L395 + S31E
Regarding B17, binding in assay [2] was put at a Kd of 47 nM.

B18: H1048/L0442 (antibody, human IgG1, kappa, name in Kabat numbering, V domains shown)
VH: QVQLVESGGGLVQPGGSLRLSCAASGFTFSEYYLSWVRQAPGKGLEWVGLIRNKDNGYTPEYSASVKGRFTISRDDSKNSLYLTMSDLKTEDTAVYYCARENHRYDVELAYWGQGTLVTVSS
VL: DIQMTQSPSSLSASVGDRVTITCRASEIIYEYLAWYQQKPGKAPKLLIYKAKTHADGVPSRFSGSGSGTDFTFTISSLQPEDIATYYCKHHFGFPRTFGQGTKVEIKR
notes: L442 = L395 + S31E
In the case of B18, in assay [2], the Kd was 67 nM. This Kd and that of the molecule before are within 1.5-fold of each other.

B19: H1028/L0442 (antibody, human IgG1, kappa, name in Kabat numbering, V domains shown)
VH: QVQLVESGGGLVQPGGSLRLSCAASGFTFSDYYLSWVRQAPGKGLEWVGLIRNKDNYHHPEYSASVKGRFTISRDDSKNSLYLTMSDLKTEDTAVYYCARENHRYDVELAYWGQGTLVTVSS
VL: DIQMTQSPSSLSASVGDRVTITCRASEIIYEYLAWYQQKPGKAPKLLIYKAKTHADGVPSRFSGSGSGTDFTFTISSLQPEDIATYYCKHHFGFPRTFGQGTKVEIKR
notes: L442 = L395 + S31E
B19: in assay [2], the Kd worked out at 140 nM and the off-rate constant (koff) is 0.13 s⁻¹. This molecule also gave a Kd in assay [1] of 0.24 nM.

Values taken from patent publication US20190169286A1 (Chugai, published 2019).
